The values that follow come from patent publication US20220275083A1 (EUTILEX, published 2022).

First the molecules themselves.
B1: bispecific epitope binding protein S05 (bispecific antibody)
chain: FLESPDRPWNAPTFSPALLLVAEGDNATFTCSFSNASESFHVVWHRESPSGQTDTLAAFPEDRSQPGQDHRFRVTRLPNGRDFHMSVVRAQRNDSGTYVCGVISLAPKIQIKESLRAELRVTERRAEVPTAHPSPSPRPAGQFQTLVVGASGGGGSGGGGSDKTHTCPPCPAPEAAGGPSVFLFPPKPKDTLMISRTPEVTCVVVDVSHEDPEVKFNWYVDGVEVHNAKTKPREEQYNSTYRVVSVLTVLHQDWLNGKEYKCAVSNKALPAPIEKTISKAKGQPREPQVYTLPPSREEMTKNQVSLTCLVKGFYPSDIAVEWESNGQPENNYKTTPPVLDSDGSFFLYSKLTVDKSRWQQGNVFSCSVMHEALHNHYTQKSLSLSPGGGGGSGGGGSQVQLVQSGAEVKKPGASVKLSCKASGYTFSSYWMHWVRQAPGQGLEWIGEINPGNGHTNYNEKFKSRVTMTRDTSTSTAYMELSSLRSEDTAVYYCARSFKTARAFAYWGQGTLVTVSSGSTSGSGKPGSGEGSTKGDIVMTQSPAFLSVTPGEKVTITCRASQTISDYLHWYQQKPDQAPKLLIKYASQSISGIPSRFSGSGSGTDFTFTISSLEAEDAATYYCQDGHSWPPTFGQGTKLEIK
notes: Anti-4-1BB 94kvt scFv x euPD-1 with hinge and engineered IgG1 Fc
B2: bispecific epitope binding protein S04 (bispecific antibody)
chain: DIVMTQSPAFLSVTPGEKVTITCRASQTISDYLHWYQQKPDQAPKLLIKYASQSISGIPSRFSGSGSGTDFTFTISSLEAEDAATYYCQDGHSWPPTFGQGTKLEIKGSTSGSGKPGSGEGSTKGQVQLVQSGAEVKKPGASVKLSCKASGYTFSSYWMHWVRQAPGQGLEWIGEINPGNGHTNYNEKFKSRVTMTRDTSTSTAYMELSSLRSEDTAVYYCARSFKTARAFAYWGQGTLVTVSSASGGGGSGGGGSDKTHTCPPCPAPEAAGGPSVFLFPPKPKDTLMISRTPEVTCVVVDVSHEDPEVKFNWYVDGVEVHNAKTKPREEQYNSTYRVVSVLTVLHQDWLNGKEYKCAVSNKALPAPIEKTISKAKGQPREPQVYTLPPSREEMTKNQVSLTCLVKGFYPSDIAVEWESNGQPENNYKTTPPVLDSDGSFFLYSKLTVDKSRWQQGNVFSCSVMHEALHNHYTQKSLSLSPGGGGGSGGGGSFLESPDRPWNAPTFSPALLLVAEGDNATFTCSFSNASESFHVVWHRESPSGQTDTLAAFPEDRSQPGQDHRFRVTRLPNGRDFHMSVVRAQRNDSGTYVCGVISLAPKIQIKESLRAELRVTERRAEVPTAHPSPSPRPAGQFQTLVVGGGGGSGGGGSGGGGSFLESPDRPWNAPTFSPALLLVAEGDNATFTCSFSNASESFHVVWHRESPSGQTDTLAAFPEDRSQPGQDHRFRVTRLPNGRDFHMSVVRAQRNDSGTYVCGVISLAPKIQIKESLRAELRVTERRAEVPTAHPSPSPRPAGQFQTLVVG
notes: as for B1
B3: bispecific epitope binding protein S08 (bispecific antibody)
chain: FLESPDRPWNAPTFSPALLLVAEGDNATFTCSFSNASESFHVVWHRESPSGQTDTLAAFPEDRSQPGQDHRFRVTRLPNGRDFHMSVVRAQRNDSGTYVCGVISLAPKIQIKESLRAELRVTERRAEVPTAHPSPSPRPAGQFQTLVVGGGGGSGGGGSGGGGSFLESPDRPWNAPTFSPALLLVAEGDNATFTCSFSNASESFHVVWHRESPSGQTDTLAAFPEDRSQPGQDHRFRVTRLPNGRDFHMSVVRAQRNDSGTYVCGVISLAPKIQIKESLRAELRVTERRAEVPTAHPSPSPRPAGQFQTLVVGASGGGGSGGGGSDKTHTCPPCPAPEAAGGPSVFLFPPKPKDTLMISRTPEVTCVVVDVSHEDPEVKFNWYVDGVEVHNAKTKPREEQYNSTYRVVSVLTVLHQDWLNGKEYKCAVSNKALPAPIEKTISKAKGQPREPQVYTLPPSREEMTKNQVSLTCLVKGFYPSDIAVEWESNGQPENNYKTTPPVLDSDGSFFLYSKLTVDKSRWQQGNVFSCSVMHEALHNHYTQKSLSLSPGGGGGSGGGGSDIVMTQSPAFLSVTPGEKVTITCRASQTISDYLHWYQQKPDQAPKLLIKYASQSISGIPSRFSGSGSGTDFTFTISSLEAEDAATYYCQDGHSWPPTFGQGTKLEIKGSTSGSGKPGSGEGSTKGQVQLVQSGAEVKKPGASVKLSCKASGYTFSSYWMHWVRQAPGQGLEWIGEINPGNGHTNYNEKFKSRVTMTRDTSTSTAYMELSSLRSEDTAVYYCARSFKTARAFAYWGQGTLVTVSS
notes: as for B1
B4: bispecific epitope binding protein S01 (bispecific antibody)
chain: QVQLVQSGAEVKKPGASVKLSCKASGYTFSSYWMHWVRQAPGQGLEWIGEINPGNGHTNYNEKFKSRVTMTRDTSTSTAYMELSSLRSEDTAVYYCARSFKTARAFAYWGQGTLVTVSSGSTSGSGKPGSGEGSTKGDIVMTQSPAFLSVTPGEKVTITCRASQTISDYLHWYQQKPDQAPKLLIKYASQSISGIPSRFSGSGSGTDFTFTISSLEAEDAATYYCQDGHSWPPTFGQGTKLEIKASGGGGSGGGGSDKTHTCPPCPAPEAAGGPSVFLFPPKPKDTLMISRTPEVTCVVVDVSHEDPEVKFNWYVDGVEVHNAKTKPREEQYNSTYRVVSVLTVLHQDWLNGKEYKCAVSNKALPAPIEKTISKAKGQPREPQVYTLPPSREEMTKNQVSLTCLVKGFYPSDIAVEWESNGQPENNYKTTPPVLDSDGSFFLYSKLTVDKSRWQQGNVFSCSVMHEALHNHYTQKSLSLSPGGGGGSGGGGSFLESPDRPWNAPTFSPALLLVAEGDNATFTCSFSNASESFHVVWHRESPSGQTDTLAAFPEDRSQPGQDHRFRVTRLPNGRDFHMSVVRAQRNDSGTYVCGVISLAPKIQIKESLRAELRVTERRAEVPTAHPSPSPRPAGQFQTLVVG
notes: Anti-4-1BB 94kvt scFv x euPD-1 with hinge and engineered IgG1 Fc (L234A, L235A, K322A, D356E, L358M)
B5: bispecific epitope binding protein S06 (bispecific antibody)
chain: FLESPDRPWNAPTFSPALLLVAEGDNATFTCSFSNASESFHVVWHRESPSGQTDTLAAFPEDRSQPGQDHRFRVTRLPNGRDFHMSVVRAQRNDSGTYVCGVISLAPKIQIKESLRAELRVTERRAEVPTAHPSPSPRPAGQFQTLVVGGGGGSGGGGSGGGGSFLESPDRPWNAPTFSPALLLVAEGDNATFTCSFSNASESFHVVWHRESPSGQTDTLAAFPEDRSQPGQDHRFRVTRLPNGRDFHMSVVRAQRNDSGTYVCGVISLAPKIQIKESLRAELRVTERRAEVPTAHPSPSPRPAGQFQTLVVGASGGGGSGGGGSDKTHTCPPCPAPEAAGGPSVFLFPPKPKDTLMISRTPEVTCVVVDVSHEDPEVKFNWYVDGVEVHNAKTKPREEQYNSTYRVVSVLTVLHQDWLNGKEYKCAVSNKALPAPIEKTISKAKGQPREPQVYTLPPSREEMTKNQVSLTCLVKGFYPSDIAVEWESNGQPENNYKTTPPVLDSDGSFFLYSKLTVDKSRWQQGNVFSCSVMHEALHNHYTQKSLSLSPGGGGGSGGGGSQVQLVQSGAEVKKPGASVKLSCKASGYTFSSYWMHWVRQAPGQGLEWIGEINPGNGHTNYNEKFKSRVTMTRDTSTSTAYMELSSLRSEDTAVYYCARSFKTARAFAYWGQGTLVTVSSGSTSGSGKPGSGEGSTKGDIVMTQSPAFLSVTPGEKVTITCRASQTISDYLHWYQQKPDQAPKLLIKYASQSISGIPSRFSGSGSGTDFTFTISSLEAEDAATYYCQDGHSWPPTFGQGTKLEIK
notes: as for B1
B6: bispecific epitope binding protein S07 (bispecific antibody)
chain: FLESPDRPWNAPTFSPALLLVAEGDNATFTCSFSNASESFHVVWHRESPSGQTDTLAAFPEDRSQPGQDHRFRVTRLPNGRDFHMSVVRAQRNDSGTYVCGVISLAPKIQIKESLRAELRVTERRAEVPTAHPSPSPRPAGQFQTLVVGASGGGGSGGGGSDKTHTCPPCPAPEAAGGPSVFLFPPKPKDTLMISRTPEVTCVVVDVSHEDPEVKFNWYVDGVEVHNAKTKPREEQYNSTYRVVSVLTVLHQDWLNGKEYKCAVSNKALPAPIEKTISKAKGQPREPQVYTLPPSREEMTKNQVSLTCLVKGFYPSDIAVEWESNGQPENNYKTTPPVLDSDGSFFLYSKLTVDKSRWQQGNVFSCSVMHEALHNHYTQKSLSLSPGGGGGSGGGGSDIVMTQSPAFLSVTPGEKVTITCRASQTISDYLHWYQQKPDQAPKLLIKYASQSISGIPSRFSGSGSGTDFTFTISSLEAEDAATYYCQDGHSWPPTFGQGTKLEIKGSTSGSGKPGSGEGSTKGQVQLVQSGAEVKKPGASVKLSCKASGYTFSSYWMHWVRQAPGQGLEWIGEINPGNGHTNYNEKFKSRVTMTRDTSTSTAYMELSSLRSEDTAVYYCARSFKTARAFAYWGQGTLVTVSS
notes: as for B1

For the first test, the target named is T1, PD-L1 antigen (SinoBiologics, Cat. No. 10084-H08H) (human, UniProt Q9NZQ7 19-238).
T1 construct: Bought antigen; also called human PD-L1
T1 sequence (Q9NZQ7 19-238 limits assumed): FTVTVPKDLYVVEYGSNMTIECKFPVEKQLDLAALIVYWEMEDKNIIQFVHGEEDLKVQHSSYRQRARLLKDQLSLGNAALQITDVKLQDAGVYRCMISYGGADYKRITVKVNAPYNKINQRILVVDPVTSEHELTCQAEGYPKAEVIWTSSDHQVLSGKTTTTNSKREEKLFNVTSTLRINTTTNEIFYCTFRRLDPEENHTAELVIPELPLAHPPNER
Nature of the test: SPR, Biacore T200; variant captured on CM5, PD-L1 antigen injected. The procedure: (§1) Affinity to 4-1BB was determined using the bispecific epitope binding protein variants diluted to 5 μg/ml and then fixed to CM5 chip (Cytiva, BR-1005-30) with human capture (Cytiva, Cat. No. BR-1008-39). The 4-1BB antigen (abclon) was injected at concentrations of 100, 50, 25, 12.5, 6.25, and 3.125 nM, the association time was set to 150 seconds, and the dissociation time was set to 240 seconds. Biacore T200 (cytiva) was used as the analysis equipment.
Affinity to PD-L1 was determined using the bispecific epitope binding protein variants diluted to 10 μg/ml and then fixed to CM5 chip with human capture.
Broadly, the Kd is the free concentration of one partner at which half of the binding sites on the other are occupied at equilibrium, for simple one-to-one binding. The low end stands for tighter binding, the high end for weaker binding. What is called koff is the first-order rate constant of dissociation. A low value points to slow dissociation. As usually defined, the kon is a measure of how fast the partners come together. Low values mean slow association, high ones fast association. Regarding B1, the Kd is 1.16 nM, the koff is 0.00169 s⁻¹ and the kon was determined as 1.46e+06 M⁻¹ s⁻¹.

Molecule B2 yielded a Kd of 2.34 nM, a koff of 0.0014 s⁻¹ and a kon of 596000 M⁻¹ s⁻¹.

On to B3, for which binding was characterised by a dissociation constant (Kd) of 2.22 nM, the koff came out at 0.00186 s⁻¹ and the on-rate (kon) stood at 837000 M⁻¹ s⁻¹.

For the molecule B4, the Kd is 5.73 nM, the koff is 0.00132 s⁻¹ and the kon came to 230000 M⁻¹ s⁻¹.

As for B5, the Kd stood at 2.22 nM, the koff came out at 0.00186 s⁻¹ and the kon amounted to 837000 M⁻¹ s⁻¹.

Turning to B6, binding was put at a Kd of 1.58 nM, the koff worked out at 0.00158 s⁻¹ and the kon was 1e+06 M⁻¹ s⁻¹.

A further test deals with T2, 4-1BB antigen (abclon) (UniProt Q07011 24-186).
T2 construct: Bought antigen
T2 sequence (Q07011 24-186): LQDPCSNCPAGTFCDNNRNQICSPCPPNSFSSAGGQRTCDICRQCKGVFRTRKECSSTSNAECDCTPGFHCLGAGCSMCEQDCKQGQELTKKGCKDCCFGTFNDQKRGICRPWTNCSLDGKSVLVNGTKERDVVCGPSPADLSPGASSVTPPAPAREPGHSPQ
Nature of the test: SPR, Biacore T200; variant captured on CM5, 4-1BB antigen injected. The procedure: as §1
(In SPR one partner is held on a chip, and binding of the other changes the refractive index at the surface.)
In the case of B1, the Kd worked out at 3.66 nM, the koff stood at 0.000466 s⁻¹ and the kon worked out at 127000 M⁻¹ s⁻¹.

B2 had a Kd of 2.87 nM, a koff of 0.000662 s⁻¹ and a kon of 231000 M⁻¹ s⁻¹.

The molecule B3 showed a Kd of 6.83 nM, an off-rate constant (koff) of 0.000764 s⁻¹ and a kon of 112000 M⁻¹ s⁻¹.

B4 displayed a Kd of 3.34 nM, a koff of 0.000537 s⁻¹ and a kon of 161000 M⁻¹ s⁻¹.

Molecule B5 displayed a Kd of 3.72 nM, a koff of 0.000914 s⁻¹ and a kon of 245000 M⁻¹ s⁻¹.

As for B6, the Kd was determined as 105 nM, the koff came out at 0.000676 s⁻¹ and the kon was found to be 6430 M⁻¹ s⁻¹.
